Test results from IntAct's records for PubMed 30559189.

B1: Glycosylphosphatidylinositol-anchored high density lipoprotein-binding protein 1 (Homo sapiens), Q8IV16 (parent)
chain: MKALGAVLLALLLFGRPGRGQTQQEEEEEDEDHGPDDYDEEDEDEVEEEETNRLPGGRSRVLLRCYTCKSLPRDERCNLTQNCSHGQTCTTLIAHGNTESGLLTTHSTWCTDSCQPITKTVEGTQVTMTCCQSSLCNVPPWQSSRVQDPTGKGAGGPRGSSETVGAALLLNLLAGLGAMGARRP
partner: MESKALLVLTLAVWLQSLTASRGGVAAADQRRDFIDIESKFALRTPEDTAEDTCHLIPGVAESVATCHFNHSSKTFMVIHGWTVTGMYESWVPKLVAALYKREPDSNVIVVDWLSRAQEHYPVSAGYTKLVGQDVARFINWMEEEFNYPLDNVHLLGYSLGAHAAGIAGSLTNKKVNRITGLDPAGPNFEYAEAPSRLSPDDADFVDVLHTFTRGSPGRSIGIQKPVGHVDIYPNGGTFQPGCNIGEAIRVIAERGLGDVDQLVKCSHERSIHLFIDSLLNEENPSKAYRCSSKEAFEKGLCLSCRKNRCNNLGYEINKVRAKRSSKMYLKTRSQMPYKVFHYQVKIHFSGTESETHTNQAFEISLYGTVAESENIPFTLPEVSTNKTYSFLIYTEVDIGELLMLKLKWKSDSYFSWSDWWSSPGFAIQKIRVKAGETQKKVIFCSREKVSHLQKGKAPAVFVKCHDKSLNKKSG
B2: Lipoprotein lipase (Homo sapiens), P06858 (parent)
chain: B1 partner
partner: B1 chain

Variants of: B1
Conditions: with lipl_human LPL, P06858

Row | effect of a mutation on the interaction | Variant
1 | disrupting interaction strength | MKALGAVLLALLLFGRPGRGQTQQEEEEEDEDHGPDDYDEEDEDEVEEEETNRLPGGRSRVLLRCYTCKSLPRDERCNLTQNCSHGQTCTTLIAHGNTESGLLTTHSTSCTDSCQPITKTVEGTQVTMTCCQSSLCNVPPWQSSRVQDPTGKGAGGPRGSSETVGAALLLNLLAGLGAMGARRP

Variants of: B2
Conditions: with hdbp1_human GPIHBP1, Q8IV16

Row | effect of a mutation on the interaction | Variant
2 | disrupting interaction strength | MESKALLVLTLAVWLQSLTASRGGVAAADQRRDFIDIESKFALRTPEDTAEDTCHLIPGVAESVATCHFNHSSKTFMVIHGWTVTGMYESWVPKLVAALYKREPDSNVIVVDWLSRAQEHYPVSAGYTKLVGQDVARFINWMEEEFNYPLDNVHLLGYSLGAHAAGIAGSLTNKKVNRITGLDPAGPNFEYAEAPSRLSPDDADFVDVLHTFTRGSPGRSIGIQKPVGHVDIYPNGGTFQPGCNIGEAIRVIAERGLGDVDQLVKCSHERSIHLFIDSLLNEENPSKAYRCSSKEAFEKGLCLSCRKNRCNNLGYEINKVRAKRSSKMYLKTRSQMPYKVFHYQVKIHFSGTESETHTNQAFEISLYGTVAESENIPFTLPEVSTNKTYSFLIYTEVDIGELLRLKLKWKSDSYFSWSDWWSSPGFAIQKIRVKAGETQKKVIFCSREKVSHLQKGKAPAVFVKCHDKSLNKKSG [M404R]
3 | disrupting interaction strength | MESKALLVLTLAVWLQSLTASRGGVAAADQRRDFIDIESKFALRTPEDTAEDTCHLIPGVAESVATCHFNHSSKTFMVIHGWTVTGMYESWVPKLVAALYKREPDSNVIVVDWLSRAQEHYPVSAGYTKLVGQDVARFINWMEEEFNYPLDNVHLLGYSLGAHAAGIAGSLTNKKVNRITGLDPAGPNFEYAEAPSRLSPDDADFVDVLHTFTRGSPGRSIGIQKPVGHVDIYPNGGTFQPGCNIGEAIRVIAERGLGDVDQLVKCSHERSIHLFIDSLLNEENPSKAYRCSSKEAFEKGLCLSCRKNRCNNLGYEINKVRAKRSSKMYLKTRSQMPYKVFHYQVKIHFSGTESETHTNQAFEISLYGTVAESENIPFTLPEVSTNKTYSFLIYTEVDIGELLMLKLKWKSDSYFSWSDWWSSPGFAIQKIRVKAGETQKKVIFSSREKVSHLQKGKAPAVFVKCHDKSLNKKSG [C445S]

Variants of: B2
Conditions: with hdbp1_human GPIHBP1, Q8IV16
Remark: another data set of the same source

Row | effect of a mutation on the interaction | Variant
4 | disrupting interaction strength | MESKALLVLTLAVWLQSLTASRGGVAAADQRRDFIDIESKFALRTPEDTAEDTCHLIPGVAESVATCHFNHSSKTFMVIHGWTVTGMYESWVPKLVAALYKREPDSNVIVVDWLSRAQEHYPVSAGYTKLVGQDVARFINWMEEEFNYPLDNVHLLGYSLGAHAAGIAGSLTNKKVNRITGLDPAGPNFEYAEAPSRLSPDDADFVDVLHTFTRGSPGRSIGIQKPVGHVDIYPNGGTFQPGCNIGEAIRVIAERGLGDVDQLVKCSHERSIHLFIDSLLNEENPSKAYRCSSKEAFEKGLCLSCRKNRCNNLGYEINKVRAKRSSKMYLKTRSQMPYKVFHYQVKIHFSGTESETHTNQAFEISLYGTVAESENIPFTLPEVSTNKTYSFLIYTEVDIGELLMLKLKWKSDSYFSWSDWWSSPGFAIQKIRVKAGETQKKVIFYSREKVSHLQKGKAPAVFVKCHDKSLNKKSG [C445Y]
